Data from paper PMC9239255, “Switching off Bacterial Flagellar Biogenesis by YdiU-Mediated UMPylation of FlhDC”.

Molecular target: T1, FlhDC (native, un-UMPylated) (Escherichia coli K-12 MG1655, UniProt P0A8S9;P0ABY7 1-116;1-192)
T1 sequence 1: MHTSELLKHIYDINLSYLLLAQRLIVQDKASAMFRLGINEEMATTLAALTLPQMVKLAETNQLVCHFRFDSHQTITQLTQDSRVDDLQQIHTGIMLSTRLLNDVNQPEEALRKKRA
T1 sequence 2: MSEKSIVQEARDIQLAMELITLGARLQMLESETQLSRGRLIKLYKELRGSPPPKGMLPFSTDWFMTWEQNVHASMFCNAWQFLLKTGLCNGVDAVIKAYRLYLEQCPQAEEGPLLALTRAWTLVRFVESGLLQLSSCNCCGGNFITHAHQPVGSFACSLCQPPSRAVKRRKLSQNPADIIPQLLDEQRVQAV
Experiment: EMSA; 10 nM DNA; shift at protein:DNA ratio greater than 1
Settings: protein: recombinant; tags: none apparent (pET21b; reverse primer carries stop codon); chain copies: 4;2; label: 5'-FAM on strand 1 (Methods call both oligos FAM-flhB); blunt

B1: pflhB (flhB promoter) (dsDNA)
DNA 1: ATTAACGCCATAAACCCCGCCTTTTTTACCGCTTACTCTGCCTATTGGCGT
DNA 2: ACGCCAATAGGCAGAGTAAGCGGTAAAAAAGGCGGGGTTTATGGCGTTAAT
B1: binds.
